This is an account of results in patent US20200308299A1, “ANTI-GPC-1 ANTIBODY” (National University Corporation Kochi University, priority 2017, published 2020).

Series [1] concerns TE8 cells. Kind of series: ADC assay combining anti-GPC-1 antibody and MMAF binding secondary antibody, TE8 cells. It is filed as cell-based. The settings on record: primary antibody plus MMAF secondary antibody.
In series [2] the test system is TE8, HeLa, ME180, BxPC3, and T3M4 cell strains. The experiment in a line: Internalization assay on GPC1 ADC (01a033), various GPC1 positive cell strains. It is filed as cell-based. Conditions: esophageal, pancreatic and cervical cancer derived cell strains, 37° C. The procedure:
(§1) Detection was performed on cells treated with GPC1 ADC (01a033) MMAF with anti-GPC1 mAb (biotin-labeled 02b006) and PE-labeled streptavidin.
(§2) TE8, HeLa, ME180, BxPC3, and T3M4 cell strains were detached and collected from a 10 cm plate using 0.02% EDTA. Cells were suspended in RPMI1640+10% FBS+100 U/ml penicillin+100 μg/ml streptomycin, and two 1.5 ml tubes were created at 1.0×10^6 cells/0.9 ml. To lower the internalization activity, the tubes were left standing on ice for 1 hour. 1 mg/ml of GPC1 ADC (01a033) MMAF was diluted to 24 μg/mL (160 nM) with ice-cooled RPMI1640+10% FBS+100 U/ml penicillin+100 μg/ml streptomycin. 100 μl of the ADC was added and suspended in the cell suspension and incubated on ice for 30 minutes to stain the antigens on the cell surface. After 30 minutes, the cell suspension was dispensed into 7 tubes each at 100 μl each. The cell suspension was separated into 4° C. incubation group and 37° C. incubation group in 14 tubes. The incubation times were 0.0 h, 1 h, 2 h, 3 h, 4 h, 6 h, 12 h, and 24 h. After reaching the incubation time, the cells were centrifuged at 1500 rpm at 4° C. for 5 minutes to remove the supernatant. The cells were washed with 100 μl of ice cooled PBS+0.2% BSA and subjected to centrifugation to wash the cells. Washing operation was performed three times in total. […]

Series [3] is described as follows: Safety test on anti-GPC1 antibody 01a033 using mice. In kind it is in vivo, mouse. Conditions: 1 mg/body ip, C57BL/6J mice, day 7. The procedure:
The following items were evaluated on day 7.
Blood collection endpoints: WBC, RBC, Hb, Plt, T-Bil, ALT, ALP, Amy, BUN, Cr, Ca, P, TP, Alb, Na, K, Glob, and Glu, automatic blood cell counter: VetScan HMII, animal biochemical blood analyzer: VetScan VS2.

In series [4] the test system is LLC-control-7 cells. The experiment in a line: In vitro ADC assay, LLC-control-7 cells. It is filed as cell-based. The settings on record: does not express mouse GPC-1, 72 hours. As for the experimental part:
An mGPC1 expression vector (pcDNA3.1-mGPC1) and control vector (pcDNA3.1V5/His) were transfected using Lipofectamine® 2000 into LLC cell strain (mouse lung cancer cell strain). Cells subjected to gene transfer were selected by adding G418 to a medium, and the formed colony was picked up. The expression of mGPC1 was analyzed by FACS using anti-GPC1 antibody clone 01a033. LLC-mGPC1-16 cells were established as an mGPC1 stable expression strain, and LLC-control-7 was established as the control.
Preparation of a conjugate of mouse anti-glypican-1 mAb (01a033), mouse IgG2a (biolegend #400224) as a control, and mc-vc-PAB-MMAF was commissioned to MORADEC. An anticancer agent was conjugated to a cysteine residue via a cleavable linker. The DAR (drug-antibody ratio) was as follows. […]
RPMI1640+10% FBS+100 U/ml penicillin+100 μg/ml streptomycin was used as the medium. […] (3) After 72 hours of culturing, CellTiter-Glo™ Luminescence Cell Viability Assay reagent (Promega) was added and mixed at 100 μL/well. (4) Measurements were taken with a plate reader. […]
The IC50 values were calculated from the following equation (Hossain M M, Hosono-Fukao T, Tang R, Sugaya N, van Kuppevelt T H, Jenniskens G J, Kimata K, Rosen S D, Uchimura K (2010) Direct detection of HSulf-1 and HSulf-2 activities on extracellular heparan sulphate and their inhibition by PI-88. Glycobiology […]: 175-186.) […]

Series [5] has as its system TE8 cells. The experiment in a line: Internalization assay on GPC1 ADC (01a033), TE8 cells. It is filed as cell-based. Conditions: 0-24 h. As for the experimental part: as §1, §2

B1: clone 01a033 (antibody)
heavy: QVQLKQSGPELVKPGASVKISCKASGYSFTGYYMHWVKQSPEKSLEWIGEINPSTGDTTYNQKFKAKATLTVDKSSSTAYMQLKSLTSEDSAVYYCAREKRDDGVFAYWGQGTLVTVSSAKTTAPSVYPLAPVCGDTTGSSVTLGCLVKGYFPEPVTLTWNSGSLSSGVHTFPAVLQSDLYTLSSSVTVTSSTWPSQSITCNVAHPASSTKVDKKIEPRGPTIKPCPPCKCPAPNLLGGPSVFIFPPKIKDVLMISLSPIVTCVVVDVSEDDPDVQISWFVNNVEVHTAQTQTHREDYNSTLRVVSALPIQHQDWMSGKEFKCKVNNKDLPAPIERTISKPKGSVRAPQVYVLPPPEEEMTKKQVTLTCMVTDFMPEDIYVEWTNNGKTELNYKNTEPVLDSDGSYFMYSKLRVEKKNWVERNSYSCSVVHEGLHNHHTTKSFSRTPGK
light: DIVMSQSPKSMSMSVGERVALSCKASENVGTYVSWYQQKPEQSPKLLIYGASNRYTGVPDRFTGSGSATDFTLTISSVQAEDLADYYCGQSYSYPLTFGAGTKLELKRADAAPTVSIFPPSSEQLTSGGASVVCFLNNFYPKDINVKWKIDGSERQNGVLNSWTDQDSKDSTYSMSSTLTLTKDEYERHNSYTCEATHKTSTSPIVKSFNRNEC
Regarding B1, the “antitumor effect on TE8” value in series [1] was “particularly potent antitumor effect”. Besides, the internalization activity entry in series [2] is “high internalization activity”. The “toxicity (blood cell count, biochemical blood analysis)” value in series [3] is given as “Toxicity was not found”. Moreover, in series [4], the “effect of suppressing growth against LLC-control-7” value is given as “low effect of suppressing growth”.

B2: GPC1 ADC (conjugate)
heavy: QVQLKQSGPELVKPGASVKISCKASGYSFTGYYMHWVKQSPEKSLEWIGEINPSTGDTTYNQKFKAKATLTVDKSSSTAYMQLKSLTSEDSAVYYCAREKRDDGVFAYWGQGTLVTVSSAKTTAPSVYPLAPVCGDTTGSSVTLGCLVKGYFPEPVTLTWNSGSLSSGVHTFPAVLQSDLYTLSSSVTVTSSTWPSQSITCNVAHPASSTKVDKKIEPRGPTIKPCPPCKCPAPNLLGGPSVFIFPPKIKDVLMISLSPIVTCVVVDVSEDDPDVQISWFVNNVEVHTAQTQTHREDYNSTLRVVSALPIQHQDWMSGKEFKCKVNNKDLPAPIERTISKPKGSVRAPQVYVLPPPEEEMTKKQVTLTCMVTDFMPEDIYVEWTNNGKTELNYKNTEPVLDSDGSYFMYSKLRVEKKNWVERNSYSCSVVHEGLHNHHTTKSFSRTPGK
light: DIVMSQSPKSMSMSVGERVALSCKASENVGTYVSWYQQKPEQSPKLLIYGASNRYTGVPDRFTGSGSATDFTLTISSVQAEDLADYYCGQSYSYPLTFGAGTKLELKRADAAPTVSIFPPSSEQLTSGGASVVCFLNNFYPKDINVKWKIDGSERQNGVLNSWTDQDSKDSTYSMSSTLTLTKDEYERHNSYTCEATHKTSTSPIVKSFNRNEC
For B2, in series [5] (TE8, incubation at 4° C.), the “residual amount of Glypican-1 on the cell surface” value is recorded as “hardly changed”. For the same molecule, the “Glypican-1 remaining on the cell surface” value in series [5] (TE8, incubation at 37° C.) is “decreases with the passage of incubation time”.
